34 molecules from patent US20260209386A1 (MYTHIC THERAPEUTICS, published 2026) can be followed below.

Numbering of substitutions follows the chain as printed.

Sequences and labels used below:
T1: Human PTK7/CCK4 Protein, His Tag, Acro Biosystems PT7-H52H3 (human, UniProt Q13308 31-704)
T1 construct: bought protein; also called Human PTK7 Protein, His Tag, Acro Biosystems; not shown: His tag
T1 sequence: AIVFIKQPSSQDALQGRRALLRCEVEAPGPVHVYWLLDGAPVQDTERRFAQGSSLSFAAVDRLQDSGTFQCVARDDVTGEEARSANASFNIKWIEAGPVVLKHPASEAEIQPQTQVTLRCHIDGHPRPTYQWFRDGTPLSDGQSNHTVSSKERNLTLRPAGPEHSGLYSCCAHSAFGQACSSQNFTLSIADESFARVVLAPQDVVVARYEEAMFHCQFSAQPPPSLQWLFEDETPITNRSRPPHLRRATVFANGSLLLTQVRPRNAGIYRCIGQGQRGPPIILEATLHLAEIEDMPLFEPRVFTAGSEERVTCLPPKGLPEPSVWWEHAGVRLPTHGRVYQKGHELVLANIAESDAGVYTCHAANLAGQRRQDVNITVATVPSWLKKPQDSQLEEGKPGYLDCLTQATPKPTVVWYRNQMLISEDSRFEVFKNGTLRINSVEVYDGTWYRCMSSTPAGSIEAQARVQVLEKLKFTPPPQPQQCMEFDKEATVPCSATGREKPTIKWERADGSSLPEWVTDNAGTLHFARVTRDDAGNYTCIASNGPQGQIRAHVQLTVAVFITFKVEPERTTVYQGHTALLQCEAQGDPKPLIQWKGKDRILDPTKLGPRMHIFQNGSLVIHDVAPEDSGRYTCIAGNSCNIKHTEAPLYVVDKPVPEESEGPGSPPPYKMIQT

T2: Human PTK7 Protein, His Tag, Acro Biosystems (human, UniProt Q13308 31-704)
T2 construct: Bought recombinant protein; also called CCK4; not shown: His tag
T2 sequence: T1 sequence

B1: MYT6231 (antibody, V domains shown)
VH: QVQLVESGGGVVQPGRSLRLSCAASGFTFSSHGMHWVRQAPGKGLEWVAVIWDDGSNKYYVDSVKGRFTISRDNSKNTLYLQMNSLRAEDTAVYYCARDDYYGSGSFNSYYGTDVWGQGTTVTVSS
VL: EIVLTQSPATLSLSPGERATLSCRASQSVSIYLAWYQQKPGQAPRLLIYDASNRATGIPARFSGSGSGTDFTLTISSLEPEDFAVYYCQQRSNWPPFTFGPGTKVDIK
notes: IgG
B2: MYT6253 (antibody, V domains shown)
VH: B1 VH with H32Y, R98H
VL: B1 VL
notes: IgG
B3: MYT6267 (antibody, V domains shown)
VH: B1 VH with H32Y, G112H
VL: B1 VL
notes: IgG
B4: MYT6268 (antibody, V domains shown)
VH: B1 VH with H32Y, T113H
VL: B1 VL
notes: IgG
B5: MYT6255 (antibody, V domains shown)
VH: B1 VH with H32Y, D100H
VL: B1 VL
notes: IgG
B6: MYT6256 (antibody, V domains shown)
VH: B1 VH with H32Y, Y101H
VL: B1 VL
notes: IgG
B7: MYT6244 (antibody, V domains shown)
VH: B1 VH with H32Y, Y59H
VL: B1 VL
notes: IgG
B8: MYT6232 (antibody, V domains shown)
VH: B1 VH with H32Y, G33H
VL: B1 VL
notes: IgG
B9: MYT6254 (antibody, V domains shown)
VH: B1 VH with H32Y, D99H
VL: B1 VL
notes: IgG
B10: MYT6162 (antibody, V domains shown)
VH: QVQLVQSGPEVKKPGASVKVSCKASGYTFTDYHVHWVRQAPGKRLEWIGVISTYNDYTYNNQDFKGRVTMTRDTSASTAYMELSRLRSEDTAVYYCARGNSYFYALDYWGQGTSVTVSS
VL: EIVLTQSPATLSLSPGERATLSCRASESVDSYGKSFMHWYQQKPGQAPRLLIYRASNLESGIPARFSGSGSGTDFTLTISSLEPEDFAVYYCQQSNEDPWTFGGGTKLEIK
notes: IgG
B11: MYT6206 (antibody, V domains shown)
VH: B10 VH with H33A
VL: B10 VL with F36H
notes: IgG
B12: MYT6165 (antibody, V domains shown)
VH: B10 VH with H33A, V50H
VL: B10 VL
notes: IgG
B13: MYT6221 (antibody, V domains shown)
VH: B10 VH with H33A
VL: B10 VL with D98H
notes: IgG
B14: MYT6186 (antibody, V domains shown)
VH: B10 VH with H33A, S101H
VL: B10 VL
notes: IgG
B15: MYT6210 (antibody, V domains shown)
VH: B10 VH with H33A
VL: B10 VL with A55H
notes: IgG
B16: MYT6190 (antibody, V domains shown)
VH: B10 VH with H33A, A105H
VL: B10 VL
notes: IgG
B17: MYT6184 (antibody, V domains shown)
VH: B10 VH with H33A, G99H
VL: B10 VL
notes: IgG
B18: MYT6209 (antibody, V domains shown)
VH: B10 VH with H33A
VL: B10 VL with R54H
notes: IgG
B19: MYT6218 (antibody, V domains shown)
VH: B10 VH with H33A
VL: B10 VL with S95H
notes: IgG
B20: MYT11120 (antibody, V domains shown)
VH: EVQLVESGGGLVQPGGSLRLSCTASGFSLSTYAMSWVRQAPGKGLEWVGMIYINDNTHYASWAKGRFTISRDTSKNTVYLQMNSLRAEDTAVYFCARDIGISYYIGVSLWGQGTLVTVSS
VL: EIVMTQSPSTLSASVGDRVIITCQASQSIGTRLSWYQQKPGKAPKLLIYGASKLATGVPSRFSGSGSGAEFTLTISSLQPDDFATYYCLGEYSYTTTDGIAFGQGTKLTVL
notes: MYT9412 HC variant
B21: MYT11137 (antibody, V domains shown)
VH: B20 VH with H58Y, I105H
VL: B20 VL
notes: MYT9412 HC variant
B22: MYT11150 (antibody, V domains shown)
VH: B20 VH with H58Y
VL: B20 VL with I29H
notes: MYT9412 LC variant
B23: MYT11172 (antibody, V domains shown)
VH: B20 VH with H58Y
VL: B20 VL with D98H
notes: MYT9412 LC variant
B24: MYT11177 (antibody, V domains shown)
VH: B20 VH with H58Y
VL: B20 VL with D98A
notes: MYT9412 LC alanine variant
B25: MYT11163 (antibody, V domains shown)
VH: B20 VH with H58Y
VL: B20 VL with L89H
notes: MYT9412 LC variant
B26: MYT11144 (antibody, V domains shown)
VH: B20 VH with H58Y, D98A
VL: B20 VL
notes: MYT9412 HC alanine variant
B27: MYT11166 (antibody, V domains shown)
VH: B20 VH with H58Y
VL: B20 VL with Y92H
notes: MYT9412 LC variant
B28: MYT11151 (antibody, V domains shown)
VH: B20 VH with H58Y
VL: B20 VL with G30H
notes: MYT9412 LC variant
B29: MYT11153 (antibody, V domains shown)
VH: B20 VH with H58Y
VL: B20 VL with R32H
notes: MYT9412 LC variant
B30: MYT11152 (antibody, V domains shown)
VH: B20 VH with H58Y
VL: B20 VL with T31H
notes: MYT9412 LC variant
B31: MYT11178 (antibody, V domains shown)
VH: B20 VH with H58Y
VL: B20 VL with G99A
notes: MYT9412 LC alanine variant
B32: MYT11146 (antibody, V domains shown)
VH: B20 VH with H58Y
VL: B20 VL with A25H
notes: MYT9412 LC variant
B33: MYT11134 (antibody, V domains shown)
VH: B20 VH with H58Y, S102H
VL: B20 VL
notes: MYT9412 HC variant
B34: MYT11136 (antibody, V domains shown)
VH: B20 VH with H58Y, Y104H
VL: B20 VL
notes: MYT9412 HC variant

The target of one assay is T1, Human PTK7/CCK4 Protein, His Tag, Acro …. Briefly: BLI, antibody on anti-human Fc sensor. On the technique in general: In BLI a coated tip is dipped into the sample, and binding shifts an interference pattern.
In the case of B1, the binding result is listed as “no binding (tested: 50 nM PTK7)”.
Same read-out and setting: the value for B2 was “no binding (tested: 50 nM PTK7)”; that for B3 was “no binding (tested: 50 nM PTK7)”; that for B4 was “no binding (tested: 50 nM PTK7)”.
On to B5, for which the binding result is given as “no binding (tested: 50 nM PTK7)”.
Same read-out and setting: the value for B6 was “no binding (tested: 50 nM PTK7)”; that for B7 was “no binding (tested: 50 nM PTK7)”; that for B8 was “no binding (tested: 50 nM PTK7)”.
On to B9, for which the binding result is “no binding (tested: 50 nM PTK7)”.
On the same count and under the same terms, for B10 the value was “no binding (tested: 50 nM PTK7)”; for B11, “no binding (tested: 50 nM PTK7)”.
On the same count and under the same terms, the value for B12 was “no binding (tested: 50 nM PTK7)”.
Still for that read-out and setting: for B13 the value was “no binding (tested: 50 nM PTK7)”; for B14, “no binding (tested: 50 nM PTK7)”; for B15, “no binding (tested: 50 nM PTK7)”.
With B16, the binding result was “no binding (tested: 50 nM PTK7)”.
Still for that read-out and setting: for B17 the value was “no binding (tested: 50 nM PTK7)”; for B18, “no binding (tested: 50 nM PTK7)”.
With B19, the binding result was “no binding (tested: 50 nM PTK7)”.

For a further assay, the target named is T2, Human PTK7 Protein, His Tag, Acro …. The assay can be described thus: BLI, anti-human Fc capture, 50 nM PTK7; 1 = pH dependent binding relative to parent.
On to B20, for which the binding result was “binds”.
The same measure, in the same setting: the value for B21 was “binds”; that for B22 was “binds”; that for B23 was “binds”.
Regarding B24, the binding result was “binds”.
B25: the binding result was “binds”.
Same read-out and setting: the value for B26 was “binds”; that for B27 was “binds”; that for B28 was “binds”.
As to B29, the binding result was “binds”.
As to B30, the binding result was “binds”.
The same measure, in the same setting: the value for B31 was “binds”; that for B32 was “binds”; that for B33 was “binds”.
Still for that read-out and setting: the value for B34 was “binds”.
